What was measured:
[1] = target: LiRAD51^ATPase (Leishmania infantum RAD51 ATPase domain, residues 134–386) (Leishmania infantum); assay: fluorescence polarisation; competition: 5 nM Fluor-NCys-LiBRC1 probe with 500 nM LiRAD51^ATPase, GB1-LiBRC repeats in serial dilutions; KD estimated from the fitted IC50; 50 mM Tris pH 8.0, 150 mM NaCl, 100 mM Li2SO4, 1% BSA, 0.1% Tween-20
[2] = target: LiRAD51^ATPase (Leishmania infantum RAD51 ATPase domain, residues 134–386) (Leishmania infantum); assay: ITC; LiBRC1 peptide in the syringe, LiRAD51^ATPase in the cell; 25°C; 20 mM Tris pH 8.0, 150 mM NaCl, 100 mM Li2SO4; single-site binding model
[3] = target: Fluor-NCys-LiBRC1 probe (Leishmania infantum); assay: fluorescence polarisation; direct titration: LiRAD51^ATPase in two-fold serial dilutions into 5 nM Fluor-NCys-LiBRC1 probe; 50 mM Tris pH 8.0, 150 mM NaCl, 100 mM Li2SO4, 1% BSA, 0.1% Tween-20

Substance	Kd [1] [nM]	other results
LiBRC2.1 (LiBRC2 Gly154 to alanine, GB1 fusion) (domain or fragment)	10600	
LiBRC1.10 (C-terminal truncation of LiBRC1, Val131 also removed, GB1 fusion) (domain or fragment)	10100	
GB1-LiBRC1-His8 (BRC repeat 1 of Leishmania infantum BRCA2 fused to GB1) (domain or fragment)	290	
LiBRC1 free peptide		Kd [2]: 650 nM
LiBRC1.8 (C-terminal truncation of LiBRC1, Glu133 also removed, GB1 fusion) (domain or fragment)	2090	
LiBRC1.7 (C-terminal truncation of LiBRC1, residues up to Arg134 removed, GB1 fusion) (domain or fragment)	390	
LiRAD51^ATPase (Leishmania infantum RAD51 ATPase domain, residues 134–386) (domain or fragment)		Kd [3]: 165 nM
LiBRC1.11 (C-terminal truncation of LiBRC1 up until Gln129, GB1 fusion) (domain or fragment)	8700	

— article PMC9162458
